# Target: RAS-AMG510 (human;)
# Experiment: cell binding (Raji), flow cytometry; apparent KD
row,Kd,Binder
1,57 nM,"AMRA3-18 hIgG1 (antibody, V domains shown) VH: EVQLVESGGGLVQPGGSLRLSCAASGFTVSYSSIHWVRQAPGKGLEWVASISSSSGYTSYADSVKGRFTISADTSKNTAYLQMNSLRAEDTAVYYCARYAWWAHGLDYWGQGTLVTVSS VL: DIQMTQSPSSLSASVGDRVTITCRASQSVSSAVAWYQQKPGKAPKLLIYSASSLYSGVPSRFSGSRSGTDFTLTISSLQPEDFATYYCQQGSYTYRLITFGQGTKVEIKR"
2,20 nM,"AMRA3-7 hIgG1 (antibody, V domains shown) VH: EVQLVESGGGLVQPGGSLRLSCAASGFTFSSYSIHWVRQAPGKGLEWVASIYSSYGYTSYADSVKGRFTISADTSKNTAYLQMNSLRAEDTAVYYCARGGWYPAMDYWGQGTLVTVSS VL: DIQMTQSPSSLSASVGDRVTITCRASQSVSSAVAWYQQKPGKAPKLLIYSASSLYSGVPSRFSGSRSGTDFTLTISSLQPEDFATYYCQQISYVYSLITFGQGTKVEIKR"
3,45 nM,"AMRA11-2 hIgG1 (antibody, V domains shown) VH: EVQLVESGGGLVQPGGSLRLSCAASGFTISSSSIHWVRQAPGKGLEWVASISSYSSSTYYADSVKGRFTISADTSKNTAYLQMNSLRAEDTAVYYCARYPYGWGWGGSGLDYWGQGTLVTVSS VL: DIQMTQSPSSLSASVGDRVTITCRASQSVSSAVAWYQQKPGKAPKLLIYSASSLYSGVPSRFSGSRSGTDFTLTISSLQPEDFATYYCQQSSSSLITFGQGTKVEIKR"

# — US20240327542A1 (published 2024)
